Laboratory results published in patent US20060239968A1 (University of Texas, published 2006).
Positions of bridges follow the written chain, without caps; N, C: chain ends. Non-standard residues stand in square brackets, D forms with d. No end group written: not given here.

Columns and labels:
[1] = target: T1, Recombinant IL-11Rα (IL-11 receptor alpha) (UniProt Q14626 23-370, limits assumed); assay: in vitro ligand-receptor binding assay, phage on recombinant receptor
T1 construct: also called immobilized IL-11Rα
T1 sequence (looked up): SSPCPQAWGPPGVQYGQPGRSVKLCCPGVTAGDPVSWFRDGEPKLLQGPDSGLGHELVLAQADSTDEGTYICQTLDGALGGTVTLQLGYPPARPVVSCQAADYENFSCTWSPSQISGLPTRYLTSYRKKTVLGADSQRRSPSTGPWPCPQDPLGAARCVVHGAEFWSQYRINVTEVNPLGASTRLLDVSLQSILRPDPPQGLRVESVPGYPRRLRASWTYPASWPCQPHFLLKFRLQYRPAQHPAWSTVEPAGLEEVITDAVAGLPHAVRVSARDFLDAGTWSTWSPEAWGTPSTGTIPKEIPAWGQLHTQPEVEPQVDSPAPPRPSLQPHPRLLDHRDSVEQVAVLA
Description: (§1) Recombinant IL-11Rα, vascular endothelial growth factor receptor-1 (VEGFR1) or leptin receptor (OB-R) were incubated with phage displaying the […] (SEQ ID NO:37) peptide. VEGFR1 was used as a representative vascular receptor, while OB-R was used because it shares a co-receptor with IL-11Rα. An unrelated phage clone displaying the peptide […] (SEQ ID NO:38) and insertless fd-tet phage were used as controls. […] Binding of […] (SEQ ID NO:37)-phage to IL-11Rα was specific, since it was inhibited by the native IL-11 ligand in a concentration-dependent manner (not shown). […] These observations with normal prostate tissues were followed by an examination of the expression of IL-11Rα in tumors, as discussed in the present Example.

[2] = target: T2, leptin receptor (OB-R), recombinant (UniProt P48357 22-839, limits assumed); assay: as above
T2 sequence (looked up): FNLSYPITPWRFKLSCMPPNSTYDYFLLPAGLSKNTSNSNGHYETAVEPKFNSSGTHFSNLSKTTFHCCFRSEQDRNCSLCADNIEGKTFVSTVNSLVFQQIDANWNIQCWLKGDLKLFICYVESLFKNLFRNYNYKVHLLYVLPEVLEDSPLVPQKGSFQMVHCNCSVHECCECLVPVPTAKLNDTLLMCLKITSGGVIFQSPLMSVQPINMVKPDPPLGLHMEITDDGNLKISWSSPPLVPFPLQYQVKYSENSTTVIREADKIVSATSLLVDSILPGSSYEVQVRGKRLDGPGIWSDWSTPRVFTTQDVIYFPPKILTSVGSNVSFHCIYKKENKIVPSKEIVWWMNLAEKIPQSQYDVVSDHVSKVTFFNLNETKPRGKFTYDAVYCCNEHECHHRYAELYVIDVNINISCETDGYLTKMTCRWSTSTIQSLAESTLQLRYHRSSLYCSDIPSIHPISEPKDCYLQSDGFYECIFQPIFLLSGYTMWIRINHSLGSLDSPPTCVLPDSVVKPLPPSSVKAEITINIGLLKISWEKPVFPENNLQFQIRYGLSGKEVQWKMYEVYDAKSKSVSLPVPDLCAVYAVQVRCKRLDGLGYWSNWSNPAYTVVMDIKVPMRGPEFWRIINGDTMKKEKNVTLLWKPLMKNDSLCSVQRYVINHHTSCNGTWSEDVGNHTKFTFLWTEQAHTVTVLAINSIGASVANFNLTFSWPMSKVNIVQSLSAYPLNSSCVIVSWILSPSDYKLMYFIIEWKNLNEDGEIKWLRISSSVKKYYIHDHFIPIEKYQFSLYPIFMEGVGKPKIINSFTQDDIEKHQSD
Description: as §1

[3] = target: vascular endothelial growth factor receptor-1 (VEGFR1), recombinant (UniProt P17948 27-756, limits assumed); assay: as above
vascular endothelial growth factor receptor-1 (VEGFR1), recombinant, sequence (P17948 27-756 limits assumed): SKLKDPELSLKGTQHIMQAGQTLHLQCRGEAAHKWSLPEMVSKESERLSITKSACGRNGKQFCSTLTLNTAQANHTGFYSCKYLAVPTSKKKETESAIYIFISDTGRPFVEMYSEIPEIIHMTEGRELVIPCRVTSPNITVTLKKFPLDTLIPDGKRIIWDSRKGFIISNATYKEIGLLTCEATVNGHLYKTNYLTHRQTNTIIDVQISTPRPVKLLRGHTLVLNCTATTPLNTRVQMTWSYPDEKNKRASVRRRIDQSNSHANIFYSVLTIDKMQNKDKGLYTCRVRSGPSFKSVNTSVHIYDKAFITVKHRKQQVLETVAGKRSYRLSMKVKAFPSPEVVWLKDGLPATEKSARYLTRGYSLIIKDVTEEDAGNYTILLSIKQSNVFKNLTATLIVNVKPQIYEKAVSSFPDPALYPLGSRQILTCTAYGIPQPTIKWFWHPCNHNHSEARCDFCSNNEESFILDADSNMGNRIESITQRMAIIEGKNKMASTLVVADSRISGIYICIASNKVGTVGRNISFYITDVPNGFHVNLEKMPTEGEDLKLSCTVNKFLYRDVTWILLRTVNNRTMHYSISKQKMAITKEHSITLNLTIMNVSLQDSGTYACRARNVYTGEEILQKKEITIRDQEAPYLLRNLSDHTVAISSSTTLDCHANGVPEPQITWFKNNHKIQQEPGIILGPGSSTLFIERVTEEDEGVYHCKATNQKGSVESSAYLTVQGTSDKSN
Description: as §1

[4] = target: T3, prohibitin (B cell receptor associated protein) (mouse); assay: immunoprecipitation from mouse adipose tissue extract, SDS-PAGE
T3 sequence (P67778 2-272, looked up): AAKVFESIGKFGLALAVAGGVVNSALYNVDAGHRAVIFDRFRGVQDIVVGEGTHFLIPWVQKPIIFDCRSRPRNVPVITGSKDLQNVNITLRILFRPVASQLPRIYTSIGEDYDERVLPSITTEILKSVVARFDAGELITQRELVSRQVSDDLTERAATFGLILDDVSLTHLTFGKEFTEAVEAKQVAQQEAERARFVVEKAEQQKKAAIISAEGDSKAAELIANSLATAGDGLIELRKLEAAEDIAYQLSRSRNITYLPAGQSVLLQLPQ

B1: unrelated phage clone displaying the peptide CRVDFSKGC (SEQ ID NO:38) (peptide)
peptide: CRVDFSKGC
notes: used as a control; also called control phage
Does B1 bind [1]?
Result: no binding

B2: CGRRAGGSC (SEQ ID NO:37)-displaying phage (peptide)
peptide: CGRRAGGSC
modifications: not fully specified (bridges); cysteine pairing not given here; also: displayed on filamentous phage
notes: also called prostate-homing phage displaying an IL-11 peptide mimic
Which results are given for B2?
binding result [2]: no binding; binding result [3]: no binding

B3: … (SEQ ID NO:81) conjugated to (KLAKLAK)2 (SEQ ID NO:1) (peptide)
peptide: CKGGRAKDCGG[dK][dL][dA][dK][dL][dA][dK][dK][dL][dA][dK][dL][dA][dK]
modifications: disulfide 1-9 (inferred); not fully specified; also: order of the parts not given here explicitly
How did the fold enrichment against the CARAC (SEQ ID NO:71) precipitated fraction [4] turn out when B3 was run?
The fold enrichment against the CARAC (SEQ ID NO:71) precipitated fraction was greater than 10 fold.
